# Results taken from EP4707390A1 (PeptiDream Inc., dated 2026).
# B1: Fc-binding peptide encoded by the translation region of SEQ ID NO: 26 (peptide)
# peptide: MPDCAYHKGELVWCTGGGGSS
# modifications: C-terminus covalently bonded to the puromycin of the linker; sample treated with oxidized glutathione after reverse transcription
# notes: Tested as an mRNA/cDNA-linker-peptide conjugate on monovalent linker 1 or divalent linker 3
# Biological target: T1, Recombinant human IgG1 Fc protein (110-HG, R&D Systems) (human, UniProt P01857-1 100-330 = IgG part)
# T1 construct: domain: Fc; Bought protein; also called human IgG Fc protein; biotinylated Fc
# Assay: display assay, conjugates on linker 1 or 3, biotinylated Fc on streptavidin magnetic beads against beads without Fc, real-time PCR
binder,measurement,value
B1,binding result,binds
